The text below walks through data of US20040259075A1.

This assay concerns the target Env-CD4-CCR5 complex (Example II) (UniProt P01730). The assay is described as follows: method not stated; reference is X5-Fab.

Chain of Env-CD4-CCR5 complex (Example II) (P51681 whole entry, chain 2 of 2, other chains not shown): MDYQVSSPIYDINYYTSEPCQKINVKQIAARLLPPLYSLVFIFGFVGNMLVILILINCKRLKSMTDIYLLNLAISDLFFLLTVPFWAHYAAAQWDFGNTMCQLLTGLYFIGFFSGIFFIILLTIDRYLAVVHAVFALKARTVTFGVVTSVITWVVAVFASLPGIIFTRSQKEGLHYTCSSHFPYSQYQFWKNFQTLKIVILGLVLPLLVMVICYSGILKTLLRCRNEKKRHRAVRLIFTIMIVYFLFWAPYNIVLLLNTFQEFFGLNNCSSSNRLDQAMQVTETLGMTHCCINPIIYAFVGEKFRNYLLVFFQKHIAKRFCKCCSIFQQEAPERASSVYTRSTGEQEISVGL

B1: FabS (Fab, V domains shown)
VH: VQLLEQSGAEVKKPGSSVQVSCKASGGTFSMYGFNWVRQAPGHGLEWMGGIIPIFGTSNYAQKFRGRVTFTADQATSTAYMELTNLRSDDTAVYYCARDFGPDWEDGDSYDGSGRGFFDFWGQGTLVTVSS
VL: ELVLTQSPGTLSLSAGERATLSCRASQSVSSGSLAWYQQKPGQAPRLLIYGASTRATGIPDRFSGSGSGTDFTLTIGRLEPEDLAVYYCQQYGTSPYTFGQGTKLEIKR
As for B1, the fold increased affinity compared to the original X5-Fab came out at 5 fold.
